Measurements from US20250108100A1, “C-TERMINAL FRAGMENT OF APOLIPOPROTEIN E AND APPLICATION THEREOF IN INHIBITING y-SECRETASE ACTIVITY” (SYNPHATEC (SHANGHAI) BIOPHARMACEUTICAL TECHNOLOGY CO., LTD., priority 2022, published 2025).

Tests used:
Format in all cases: cell-based
[1] = system: N100 (NOTCH fragment); test: γ-cleavage of NOTCH fragment N100 in HEK 293T cells co-expressing γ-secretase (Western blot); details: N100-V5 and γ-secretase, PF03084014 at 1 uM
Description: (§1) Plasmids were transfected in HEK 293T or N2A cells for 36-48 hours and then lysed in cell lysis buffer [10% 1M tris-HCl (pH=6.8), 4% SDS, 20% glycerol, 0.01% bromophenol blue]. Lysates were shaken at room temperature for 10 min, then boiled for 10 min, and centrifuged at 12,000×g for 10 min. Proteins were run on 8% or 12% Tris-glycine SDS-PAGE and transferred to PVDF membranes (Life Technologies). Samples were incubated overnight at 4° C. with primary antibody diluted in 5% BSA buffer (in 1×TBST). After washing 3 times with 1×TBST, they were incubated with secondary antibody diluted in 5% BSA buffer (in 1×TBST) for 2 hours at room temperature. Finally, after washing 3 times with 1×TBST, the signal was detected by ECL Western blotting substrate (Solarbio, PE0010).

[2] = system: primary cultured mouse hippocampal or cortical neurons; test: Endogenous Aβ40 in primary cultured mouse cortical or hippocampal neurons (lentivirus, ELISA); details: for endogenously produced Aβ40: lentivirus
Description: Primary cultured neurons were derived from the cortex or hippocampus of 16-day embryonic mice. The mouse cortex or hippocampus was obtained under a stereoscope, and was digested at 37° C. for 10 minutes with 20 U/ml papain (Worthington Company). After digestion, the neurons that exist in single-cell form were seeded with 100,000 neurons per well (24-well plate); the neurons were cultured in the neuron culture medium (Neurobasal medium; ThermoFisher Company) containing 2% B27 (ThermoFisher Company) and 1% penicillin/streptomycin; the fresh culture medium was changed once a week.
The experiment was performed according to the standard procedure in the ELISA analysis kit of Invitrogen Company. • a) The target protein was expressed in HEK 293T cell line. Cells were subcultured one day before transfection, and transfection was performed when the degree of cell adhesion reached 70%-80%. The transfection reagent was lipofectamine2000 (ThermoFisher). • b) 4-6 hours post transfection, medium were replaced with fresh cell culture medium. • c) 36-48 hours post transfection, the cell culture medium was collected, and then the ELISA process was performed or the cell culture medium was frozen in a −80° C. refrigerator. • d) 50 μl of standard samples and experimental samples were added to each well of the 96-well plate. • e) 50 μl of human-derived Aβ40 or Aβ42 or mouse-derived Aβ40 detection antibody was added to each well of the 96-well plate. • f) The above samples were shaken gently and placed at room temperature for 3 hours. • g) The liquid in the well were removed, and the plate was washed 4 times with 1× wash buffer. • h) 100 μl of the buffer containing 1× anti-Rabbit IgG HRP was added. • i) The plate was shaken gently and placed at room temperature for […]. • j) The liquid in the well were removed, and the well was washed 4 times with 1× wash buffer. • k) 100 μl of Stabilized Chromogen was added to each well, and the plate was placed in the dark for 30 minutes at room temperature. • l) 100 μl of Stop Solution was added to each well. • m) The absorbance at 450 nm was measured with a microplate reader. 2.4 qRT-PCR
• a) Construction of lentivirus expression plasmids, lentivirus-GFP and lentivirus-ApoE CT, which can be specifically expressed in neurons. • b) The lentivirus vectors were cotransfected with coat protein vectors (PSPAX2 and PMD2G) in HEK 293T cell line. Cells were subcultured one day before transfection, and transfection was performed when the degree of cell adhesion reached 70%-80%. […]
48 hours after transfection of HEK 293T cells and N2A cells, or 4.5 days after lentivirus infection of neurons, media and lysates were collected. Aβ40 and Aβ42 in the culture medium and cell lysates were detected by an Aβ ELISA kit as indicated in the protocol. […]

[3] = system: mouse APP (mAPP); test: α-CTF produced by mouse APP (mAPP) expressed in HEK 293T cells; details: HEK 293T cells transiently expressing mAPP
Description: as §1

B1: ApoE CT: C-terminal fragment of ApoE, positions 216-299 of SEQ ID NO: 12; SEQ ID NO: 33 (protein)
chain: ARMEEMGSRTRDRLDEVKEQVAEVRAKLEEQAQQIRLQAEAFQARLKSWFEPLVEDMQRQWAGLVEKVQAAVGTSAAPVPSDNH
γ-secretase-dependent reduction of N100 [1]: failed to suppress
reduction in endogenous Aβ40 ([2]; mouse cortical and hippocampal neurons, lentiviral infection, vs GFP controls): 30%
endogenously produced Aβ40 ([2]; primary cultured mouse cortical neurons): about 73 % of the control group
endogenously produced Aβ40 ([2]; primary cultured mouse hippocampal neurons): about 71 % of the control group
endogenously produced Aβ40 ([2]; primary cultured mouse neurons, vs GFP control): can reduce the endogenous production of Aβ40
α-CTF levels from mouse APP [3]: increases α-CTF levels
